Test results taken from the supplement of paper PMC10567573.

B1: EPB41L3 (parent)
chain: KKFLTLGSKFRYSGRTQAQTRRAS

Variants of: B1
Assay: protein stability index of a GFP-peptide fusion (GPS, HEK-293T) (PSI 1-6); higher = more stable
Conditions: c terminus: a fixed tail appended
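Note: lentivirally expressed fusions sorted by FACS into six bins by GFP to DsRed ratio, PSI derived from sequencing read proportions per bin multiplied by bin number.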

In order of falling protein stability index:
1. KKFLTLGSKFRYSWRTQAQTRRAS [G14W]  4.87
2. KKFLTAGSKFRYSGRTQAQTRRAS [L6A]  4.31
3. KKFLTLGSKFDYSGRTQAQTRRAS [R11D]  4.24
4. KKFLTEGSKFRYSGRTQAQTRRAS [L6E]  4.08
5. KKFLTDGSKFRYSGRTQAQTRRAS [L6D]  4.05
6. KKFLTLGSKFRYSLRTQAQTRRAS [G14L]  4.04
7. KKFLTLGSKFCYSGRTQAQTRRAS [R11C]  3.96
8. KKFLTTGSKFRYSGRTQAQTRRAS [L6T]  3.88
9. KKFLTLGSKFRYSMRTQAQTRRAS [G14M]  3.71
10. KKFLTLGSKFRYSGRTQAQTRRAR [S24R]  3.68
11. KKFLTKGSKFRYSGRTQAQTRRAS [L6K]  3.64
12. KKFLTLGSKFTYSGRTQAQTRRAS [R11T]  3.6
13. NKFLTLGSKFRYSGRTQAQTRRAS [K1N]  3.5
14. KKFLTLGSKFRYSGRTQAQRRRAS [T20R]  3.47
15. KKFLTLGSKFRYSPRTQAQTRRAS [G14P]  3.46
16. KKFLTLGSKFSYSGRTQAQTRRAS [R11S]  3.4
17. KKFLTLGSKFRYSGREQAQTRRAS [T16E]  3.38
18. KKFLTLGSKFRYSSRTQAQTRRAS [G14S]  3.34
19. KKFLTLGSKFRYSGRTQAQIRRAS [T20I]  3.28
20. KKFLTLGSKFRYSGRTQAQTRRWS [A23W]  3.26
21. KKFLTLGSKFRYSGRTQAQKRRAS [T20K]  3.2
22. KKFLTLGSKFVYSGRTQAQTRRAS [R11V]  3.17
23. KKFLTLGSKFRYSGRRQAQTRRAS [T16R]  3.13
24. KKFLTLGSKFRYSGHTQAQTRRAS [R15H]  3.12
25. KKFLTLGSKFAYSGRTQAQTRRAS [R11A]  3.11
26. KKFLTLGSKFRYYGRTQAQTRRAS [S13Y]  3.1
27. KKFLTLGSKFRYSGRTQAQTRKAS [R22K]  3.1
28. KKFLTLGSKFPYSGRTQAQTRRAS [R11P]  3.08
29. KKFLTLGSKFRYQGRTQAQTRRAS [S13Q]  3.04
30. KKFLTLGSKFRYSYRTQAQTRRAS [G14Y]  3.03
31. KKFLTLGSKFRYSGRKQAQTRRAS [T16K]  3.02
32. KKFLTLGSKFRYSGRMQAQTRRAS [T16M]  2.99
33. KKFLTLGSKFRYSGVTQAQTRRAS [R15V]  2.93
34. KKFLTLGSKFRYSGRTQAQTRRTS [A23T]  2.92
35. KKFLTLGSKFKYSGRTQAQTRRAS [R11K]  2.92
36. KKFLTLGSKFRYSGRTQIQTRRAS [A18I]  2.91
37. KKFLTLGSKFRYSGRTQAQHRRAS [T20H]  2.91
38. KKFLTLGSKFIYSGRTQAQTRRAS [R11I]  2.89
39. KKFLTLGSKFRYGGRTQAQTRRAS [S13G]  2.88
40. KKFLTLGSKFRYSGRTQAQTRRNS [A23N]  2.85
41. KKFLTLGSYFRYSGRTQAQTRRAS [K9Y]  2.85
42. KKFLTLGSKFRYSGRTQVQTRRAS [A18V]  2.84
43. KKFLTLGSKFRYSGRIQAQTRRAS [T16I]  2.83
44. KKFLTLGSKFRYSGRTQAQPRRAS [T20P]  2.81
45. KKFLTLGSKFRYSGRTQAQYRRAS [T20Y]  2.69
46. KKFLTLGSKFRYHGRTQAQTRRAS [S13H]  2.68
47. KKFLTLGSKFRYSGRTQAQTRRAY [S24Y]  2.66
48. KKFLTLGSKFRYSGRTQAQARRAS [T20A]  2.64
49. KKFLTLGSKFRYSGLTQAQTRRAS [R15L]  2.64
50. HKFLTLGSKFRYSGRTQAQTRRAS [K1H]  2.56
51. CKFLTLGSKFRYSGRTQAQTRRAS [K1C]  2.56
52. KKFLTLGSKFRYSGRTQAQTRRDS [A23D]  2.53
53. KKFLTLGSKFRYSGSTQAQTRRAS [R15S]  2.53
54. KKFLTLGSKFRYSGRTQAQTRRAM [S24M]  2.5
55. KKFLTLGSKFRYSGRTQAQTRRPS [A23P]  2.5
56. KKFLTLGSKFFYSGRTQAQTRRAS [R11F]  2.48
57. KKFLTYGSKFRYSGRTQAQTRRAS [L6Y]  2.48
58. FKFLTLGSKFRYSGRTQAQTRRAS [K1F]  2.45
59. KKFLTLGSKFRYSIRTQAQTRRAS [G14I]  2.44
60. KKFLTLGSKFRYSGRTQLQTRRAS [A18L]  2.44
61. KKFLTLGSKFRYSGRTQFQTRRAS [A18F]  2.44
62. KKFLTLGSKFLYSGRTQAQTRRAS [R11L]  2.43
63. KKFLTLGSKFRYSGRTQAQTRRAF [S24F]  2.36
64. KKFLTLGSKFRYSGRTQAQDRRAS [T20D]  2.33
65. KKFLTLGSLFRYSGRTQAQTRRAS [K9L]  2.29
66. KKFLTLGSKFRYSGRTQAQFRRAS [T20F]  2.28
67. VKFLTLGSKFRYSGRTQAQTRRAS [K1V]  2.25
68. KKFLTLGSKFRYSGRTQAQTRRCS [A23C]  2.24
69. KKFLTLGSVFRYSGRTQAQTRRAS [K9V]  2.23
70. KKFLTLGSKFRYSGRCQAQTRRAS [T16C]  2.2
71. AKFLTLGSKFRYSGRTQAQTRRAS [K1A]  2.2
72. KKFLTLGSKFRYSGRTQAQTRLAS [R22L]  2.19
73. KKFLTLGSKFRYSGFTQAQTRRAS [R15F]  2.19
74. KKFLTLGSKFRYSGITQAQTRRAS [R15I]  2.19
75. PKFLTLGSKFRYSGRTQAQTRRAS [K1P]  2.18
76. KKFLTLGSKFRYSGYTQAQTRRAS [R15Y]  2.16
77. KKFLTLGSKFRYSGRTQAQTRRAV [S24V]  2.15
78. KKFLTLGSKFRYSGRTQAQTRRYS [A23Y]  2.13
79. KKFLTLGSKFRYSGRTQAQTRYAS [R22Y]  2.13
80. KKFLTLGSTFRYSGRTQAQTRRAS [K9T]  2.13
81. KKFLTLGSFFRYSGRTQAQTRRAS [K9F]  2.13
82. KKFLTLGSHFRYSGRTQAQTRRAS [K9H]  2.11
83. KKFLTLGSKFRYSGRTQAQTRRAC [S24C]  2.1
84. KKFLTLGSKFRYSCRTQAQTRRAS [G14C]  2.06
85. KKFLTLGSKFRYSGRTQAQTRFAS [R22F]  2.05
86. KKFLTLGSKFRYSGWTQAQTRRAS [R15W]  2.05
87. KKFLTLGSKFRYSGRTQAQTRRAL [S24L]  2
88. KKFLTLGSAFRYSGRTQAQTRRAS [K9A]  1.96
89. KKFLTLGSKFRYSGRTQAQTRNAS [R22N]  1.87
90. KKFLTLGSKFRYSGRWQAQTRRAS [T16W]  1.84
91. KKFLTLGSCFRYSGRTQAQTRRAS [K9C]  1.66
92. KKFLTLGSKFRYCGRTQAQTRRAS [S13C]  1.41
93. KKFLTLGSKFRYSGRTQAQTRWAS [R22W]  1.41
94. KKFLTLGSEFRYSGRTQAQTRRAS [K9E]  1.34
